From patent US20230212319A1, “NOVEL ANTIGEN BINDING DOMAINS AND SYNTHETIC ANTIGEN RECEPTORS INCORPORATING THE SAME” (University of Southern California, priority 2020, published 2023)

B1: 22234 (protein)
chain: MALPVTALLLPLALLLHAARPDIQMTQSPSSLSASVGDRVTITCKASDHINNWLAWYQQKPGQAPKLLIYGATTLETGVPSRFSGSGSGTDYTLTISSLQPEDFATYYCQQSWNTPWTFGQGTKLEIKRLEDLKNVFPPEVAVFEPSEAEISHTQKATLVCLATGFYPDHVELSWWVNGKEVHSGVCTDPQPLKEQPALNDSRYCLSSRLRVSATFWQNPRNHFRCQVQFYGLSENDEWTQDRAKPVTQIVSAEAWGRADCGFTSESYQQGVLSATILYEILLGKATLYAVLVSALVLMAMVKRKDSRGRAKRSGSGATNFSLLKQAGDVEENPGPTSATMDWIWRILFLVGAATGAHSQLGPYELWELSHGSGSGSGSQLGPYELWELSHSGGGSGQLGPYELWELSHGSSGPGSGSCQFDLSTRRLKCGSGSCQFDLSTRRLKCGSGGGGSGGGGSGGGGSFEQVQLQQPGAELVKPGASVKMSCKASGYAFSSYWINWMKQKPGQGLEWIGQIYPGDGDTNYNGKFKGRATLTADTSSSTAYMQLSSLTSEDSAVYFCARSITTVVGCAMDYWGQGTSVTVSSTRIQNPDPAVYQLRDSKSSDKSVCLFTDFDSQTNVSQSKDSDVYITDKCVLDMRSMDFKSNSAVAWSNKSDFACANAFNNSIIPEDTFFPSPESSCDVKLVEKSFETDTNLNFQNLSVIGFRILLLKVAGFNLLMTLRLWSSRAKRSGSGVKQTLNFDLLKLAGDVESNPGPSRGHMTEYKPTVRLATRDDVPRAVRTLAAAFADYPATRHTVDPDRHIERVTELQELFLTRVGLDIGKVWVADDGAAVAVWTTPESVEAGAVFAEIGPRMAELSGSRLAAQQQMEGLLAPHRPKEPAWFLATVGVSPDHQGKGLGSAVVLPGVEAAERAGVPAFLETSAPRNLPFYERLGFTVTADVEVPEGPRTWCMTRKPGA
B2: 22237 (protein)
chain: MALPVTALLLPLALLLHAARPDIQMTQSPSSLSASVGDRVTITCKASDHINNWLAWYQQKPGQAPKLLIYGATTLETGVPSRFSGSGSGTDYTLTISSLQPEDFATYYCQQSWNTPWTFGQGTKLEIKRLEDLKNVFPPEVAVFEPSEAEISHTQKATLVCLATGFYPDHVELSWWVNGKEVHSGVCTDPQPLKEQPALNDSRYCLSSRLRVSATFWQNPRNHFRCQVQFYGLSENDEWTQDRAKPVTQIVSAEAWGRADCGFTSESYQQGVLSATILYEILLGKATLYAVLVSALVLMAMVKRKDSRGRAKRSGSGATNFSLLKQAGDVEENPGPTSATMDWIWRILFLVGAATGAHSGCPKWDAARCSGGGSGPGSGSCQFDLSTRRLKCGSGSCQFDLSTRRLKCGSGGGGSGGGGSGGGGSFEQVQLQQPGAELVKPGASVKMSCKASGYAFSSYWINWMKQKPGQGLEWIGQIYPGDGDTNYNGKFKGRATLTADTSSSTAYMQLSSLTSEDSAVYFCARSITTVVGCAMDYWGQGTSVTVSSTRIQNPDPAVYQLRDSKSSDKSVCLFTDFDSQTNVSQSKDSDVYITDKCVLDMRSMDFKSNSAVAWSNKSDFACANAFNNSIIPEDTFFPSPESSCDVKLVEKSFETDTNLNFQNLSVIGFRILLLKVAGFNLLMTLRLWSSRAKRSGSGVKQTLNFDLLKLAGDVESNPGPSRGHMTEYKPTVRLATRDDVPRAVRTLAAAFADYPATRHTVDPDRHIERVTELQELFLTRVGLDIGKVWVADDGAAVAVWTTPESVEAGAVFAEIGPRMAELSGSRLAAQQQMEGLLAPHRPKEPAWFLATVGVSPDHQGKGLGSAVVLPGVEAAERAGVPAFLETSAPRNLPFYERLGFTVTADVEVPEGPRTWCMTRKPGA
B3: 22238 (protein)
chain: MALPVTALLLPLALLLHAARPDIQMTQSPSSLSASVGDRVTITCKASDHINNWLAWYQQKPGQAPKLLIYGATTLETGVPSRFSGSGSGTDYTLTISSLQPEDFATYYCQQSWNTPWTFGQGTKLEIKRLEDLKNVFPPEVAVFEPSEAEISHTQKATLVCLATGFYPDHVELSWWVNGKEVHSGVCTDPQPLKEQPALNDSRYCLSSRLRVSATFWQNPRNHFRCQVQFYGLSENDEWTQDRAKPVTQIVSAEAWGRADCGFTSESYQQGVLSATILYEILLGKATLYAVLVSALVLMAMVKRKDSRGRAKRSGSGATNFSLLKQAGDVEENPGPTSATMDWIWRILFLVGAATGAHSQLGPYELWELSHGSGSGSGSQLGPYELWELSHSGGGSGQLGPYELWELSHGSSGPEVQLVESGGGLVQAGGSLRLSCAASGRTFSMGWFRQAPGKEREFVAAITYSGGSPYYADSVKGRFTISRDNAKNTVYLQMNSLKPEDTAVYYCAANPTYGSDWNAENWGQGTQVTVSSGSGGGGSGGGGSGGGGSFEQVQLQQPGAELVKPGASVKMSCKASGYAFSSYWINWMKQKPGQGLEWIGQIYPGDGDTNYNGKFKGRATLTADTSSSTAYMQLSSLTSEDSAVYFCARSITTVVGCAMDYWGQGTSVTVSSTRIQNPDPAVYQLRDSKSSDKSVCLFTDFDSQTNVSQSKDSDVYITDKCVLDMRSMDFKSNSAVAWSNKSDFACANAFNNSIIPEDTFFPSPESSCDVKLVEKSFETDTNLNFQNLSVIGFRILLLKVAGFNLLMTLRLWSSRAKRSGSGVKQTLNFDLLKLAGDVESNPGPSRGHMTEYKPTVRLATRDDVPRAVRTLAAAFADYPATRHTVDPDRHIERVTELQELFLTRVGLDIGKVWVADDGAAVAVWTTPESVEAGAVFAEIGPRMAELSGSRLAAQQQMEGLLAPHRPKEPAWFLATVGVSPDHQGKGLGSAVVLPGVEAAERAGVPAFLETSAPRNLPFYERLGFTVTADVEVPEGPRTWCMTRKPGA
B4: 22236 (protein)
chain: MALPVTALLLPLALLLHAARPDIQMTQSPSSLSASVGDRVTITCKASDHINNWLAWYQQKPGQAPKLLIYGATTLETGVPSRFSGSGSGTDYTLTISSLQPEDFATYYCQQSWNTPWTFGQGTKLEIKRLEDLKNVFPPEVAVFEPSEAEISHTQKATLVCLATGFYPDHVELSWWVNGKEVHSGVCTDPQPLKEQPALNDSRYCLSSRLRVSATFWQNPRNHFRCQVQFYGLSENDEWTQDRAKPVTQIVSAEAWGRADCGFTSESYQQGVLSATILYEILLGKATLYAVLVSALVLMAMVKRKDSRGRAKRSGSGATNFSLLKQAGDVEENPGPTSATMDWIWRILFLVGAATGAHSIYPPLLRTSQAMGSGGPGSGSCQFDLSTRRLKCGSGSCQFDLSTRRLKCGSGGGGSGGGGSGGGGSFEQVQLQQPGAELVKPGASVKMSCKASGYAFSSYWINWMKQKPGQGLEWIGQIYPGDGDTNYNGKFKGRATLTADTSSSTAYMQLSSLTSEDSAVYFCARSITTVVGCAMDYWGQGTSVTVSSTRIQNPDPAVYQLRDSKSSDKSVCLFTDFDSQTNVSQSKDSDVYITDKCVLDMRSMDFKSNSAVAWSNKSDFACANAFNNSIIPEDTFFPSPESSCDVKLVEKSFETDTNLNFQNLSVIGFRILLLKVAGFNLLMTLRLWSSRAKRSGSGVKQTLNFDLLKLAGDVESNPGPSRGHMTEYKPTVRLATRDDVPRAVRTLAAAFADYPATRHTVDPDRHIERVTELQELFLTRVGLDIGKVWVADDGAAVAVWTTPESVEAGAVFAEIGPRMAELSGSRLAAQQQMEGLLAPHRPKEPAWFLATVGVSPDHQGKGLGSAVVLPGVEAAERAGVPAFLETSAPRNLPFYERLGFTVTADVEVPEGPRTWCMTRKPGA

System: RAJI cells
Assay: JNG assay, co-culture with RAJI cells
Assay type: cell-based
Details: JNG cells expressing construct, co-culture with Raji
Procedure, shortened: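 Jurkat NFAT-GFP (JNG) cells stably transduced with SARs by lentivirus, with drug selection where the construct carried a resistance gene, then co-cultured with target cells at E:T ~1:2 for ~4–18 h. % GFP-positive cells measured by FACS against parental JNG; +/- to 5+ correspond to ~5–50% GFP-positive.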

Row | Molecule | NFAT-GFP ASSAY: Raji
1 | B1 | Raji (+/-) (refer to approximately 5%, 10%, 20%, 30%, 40% and 50% GFP positive cells)
2 | B2 | Raji (5+) (refer to approximately 5%, 10%, 20%, 30%, 40% and 50% GFP positive cells)
3 | B3 | Raji (+) (refer to approximately 5%, 10%, 20%, 30%, 40% and 50% GFP positive cells)
4 | B4 | Raji (4+) (refer to approximately 5%, 10%, 20%, 30%, 40% and 50% GFP positive cells)
